# Source: article PMC8539644
# Molecular target: GerD–mScarlet-I (Bacillus cereus ATCC 14579)
# Assay: FRET or BRET; sensitized emission (filter) FRET by wide-field fluorescence microscopy in single dormant B. cereus spores; donor SGFP2, acceptor mScarlet-I; normalized FRET (NFRET) corrected for bleed-through and cross-excitation
row,Substance,FRET efficiency [%]
1,GerRB–SGFP2 (natural protein),6
2,GerR(A-C-B)–SGFP2 (complex),6
